Results: doi:10.1101/2025.05.07.652689, “Structural features within precursor microRNA-20a regulate Dicer-TRBP processing” (bioRxiv, 2025)

Target: T1, Recombinant human Dicer (FLAG-Dicer) (human, UniProt Q9UPY3 1-1922)
T1 construct: Dicer, human RNase III enzyme; source: Expi293 cells expressing FLAG-Dicer (University of Michigan Protein core), purified (M2 anti-FLAG resin)
Assay: SEC; purified Dicer and TRBP mixed at a 1:3 molar ratio, concentrated, loaded on HiLoad 16/600 Superdex 200 in buffer D (20 mM Tris-HCl pH 8.0, 150 mM NaCl, 2 mM DTT)
Conditions: both partners purified

T1 sequence (Q9UPY3 whole entry): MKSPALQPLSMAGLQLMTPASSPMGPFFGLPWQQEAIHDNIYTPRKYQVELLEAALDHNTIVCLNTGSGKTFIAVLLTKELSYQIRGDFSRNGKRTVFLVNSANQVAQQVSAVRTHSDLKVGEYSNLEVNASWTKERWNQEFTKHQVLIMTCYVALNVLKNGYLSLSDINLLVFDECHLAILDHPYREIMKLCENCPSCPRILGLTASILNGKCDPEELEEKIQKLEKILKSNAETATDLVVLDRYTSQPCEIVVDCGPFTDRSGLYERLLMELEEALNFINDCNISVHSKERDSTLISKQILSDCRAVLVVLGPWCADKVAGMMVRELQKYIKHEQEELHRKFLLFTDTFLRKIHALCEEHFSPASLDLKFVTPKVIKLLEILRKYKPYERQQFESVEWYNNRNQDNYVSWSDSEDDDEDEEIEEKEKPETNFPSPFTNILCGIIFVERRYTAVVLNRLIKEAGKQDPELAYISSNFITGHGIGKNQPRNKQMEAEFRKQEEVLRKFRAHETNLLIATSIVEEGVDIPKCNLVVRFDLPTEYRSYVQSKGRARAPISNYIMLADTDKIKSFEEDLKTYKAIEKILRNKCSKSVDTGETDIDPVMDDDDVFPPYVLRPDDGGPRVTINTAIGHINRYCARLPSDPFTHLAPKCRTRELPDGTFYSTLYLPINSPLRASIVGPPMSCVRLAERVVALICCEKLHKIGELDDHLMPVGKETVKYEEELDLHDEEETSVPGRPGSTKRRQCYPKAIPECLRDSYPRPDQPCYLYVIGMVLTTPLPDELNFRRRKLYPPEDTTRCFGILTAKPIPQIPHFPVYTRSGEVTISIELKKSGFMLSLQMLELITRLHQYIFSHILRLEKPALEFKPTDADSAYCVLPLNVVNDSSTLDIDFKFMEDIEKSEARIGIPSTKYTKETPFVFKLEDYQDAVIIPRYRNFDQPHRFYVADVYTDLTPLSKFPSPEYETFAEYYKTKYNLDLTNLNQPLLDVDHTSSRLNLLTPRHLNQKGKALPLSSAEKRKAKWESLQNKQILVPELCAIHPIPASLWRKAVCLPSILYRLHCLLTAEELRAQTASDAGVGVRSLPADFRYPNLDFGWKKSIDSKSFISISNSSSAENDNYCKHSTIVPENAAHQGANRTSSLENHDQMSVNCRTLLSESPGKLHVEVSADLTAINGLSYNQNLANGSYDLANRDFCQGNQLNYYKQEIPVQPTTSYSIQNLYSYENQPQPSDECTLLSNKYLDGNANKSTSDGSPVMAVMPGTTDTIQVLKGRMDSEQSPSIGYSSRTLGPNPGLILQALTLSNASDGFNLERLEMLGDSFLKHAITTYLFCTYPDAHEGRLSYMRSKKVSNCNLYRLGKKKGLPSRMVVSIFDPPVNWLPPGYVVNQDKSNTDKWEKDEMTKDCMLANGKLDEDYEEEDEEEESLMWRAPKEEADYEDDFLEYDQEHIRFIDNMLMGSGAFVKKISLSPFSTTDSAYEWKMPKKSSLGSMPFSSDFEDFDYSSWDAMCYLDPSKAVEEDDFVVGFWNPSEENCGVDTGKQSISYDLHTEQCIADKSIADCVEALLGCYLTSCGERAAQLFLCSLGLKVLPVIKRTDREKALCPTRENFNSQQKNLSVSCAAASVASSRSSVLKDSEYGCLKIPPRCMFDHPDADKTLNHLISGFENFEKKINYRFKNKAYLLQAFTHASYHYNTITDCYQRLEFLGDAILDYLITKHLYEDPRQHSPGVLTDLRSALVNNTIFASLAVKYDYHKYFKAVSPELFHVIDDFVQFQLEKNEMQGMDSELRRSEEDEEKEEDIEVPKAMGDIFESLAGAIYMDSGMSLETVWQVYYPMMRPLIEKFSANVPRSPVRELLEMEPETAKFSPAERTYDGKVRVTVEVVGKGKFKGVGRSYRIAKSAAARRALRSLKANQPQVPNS

B1: human transactivation response element RNA-binding protein (TRBP) (natural protein, UniProt Q15633 1-366, looked up)
chain: MSEEEQGSGTTTGCGLPSIEQMLAANPGKTPISLLQEYGTRIGKTPVYDLLKAEGQAHQPNFTFRVTVGDTSCTGQGPSKKAAKHKAAEVALKHLKGGSMLEPALEDSSSFSPLDSSLPEDIPVFTAAAAATPVPSVVLTRSPPMELQPPVSPQQSECNPVGALQELVVQKGWRLPEYTVTQESGPAHRKEFTMTCRVERFIEIGSGTSKKLAKRNAAAKMLLRVHTVPLDARDGNEVEPDDDHFSIGVGSRLDGLRNRGPGCTWDSLRNSVGEKILSLRSCSLGSLGALGPACCRVLSELSEEQAFHVSYLDIEELSLSGLCQCLVELSTQPATVCHGSATTREAARGEAARRALQYLKIMAGSK
notes: TRBP, human, from plasmid pET28a-TRBP; The construct is that of Addgene plasmid #50351
binding result: binds
